Source: patent US20170015708A1 (BIOKINE THERAPEUTICS, published 2017)

What was measured:
Assay in all cases: cell-based or functional assay
[1] = biological target: T1, I-TAC (human) (human, UniProt O14625 22-94)
T1 sequence (looked up): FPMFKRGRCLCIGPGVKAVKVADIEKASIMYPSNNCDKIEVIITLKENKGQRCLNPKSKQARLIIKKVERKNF

[2] = biological target: Eotaxin (human) (human, UniProt P51671 24-97)
[3] = biological target: T2, RANTES (human) (human, UniProt P13501 24-91)
T2 sequence (looked up): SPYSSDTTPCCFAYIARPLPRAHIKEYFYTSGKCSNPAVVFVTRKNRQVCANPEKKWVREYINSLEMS

[4] = biological target: T3, IP-10 (human) (human, UniProt P02778 22-98)
T3 sequence (looked up): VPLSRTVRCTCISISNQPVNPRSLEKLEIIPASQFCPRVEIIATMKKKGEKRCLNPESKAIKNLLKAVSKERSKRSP

[5] = biological target: MCP-1 (human) (human, UniProt P13500 24-99)
[6] = biological target: T4, MIG (human) (human, UniProt Q07325 23-125)
T4 sequence (looked up): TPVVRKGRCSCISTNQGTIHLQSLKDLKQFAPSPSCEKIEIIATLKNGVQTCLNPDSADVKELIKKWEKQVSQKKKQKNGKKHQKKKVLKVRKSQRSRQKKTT

Measured: Inhibition of chemokine-dependent T cell adhesion to VCAM-1 (++ = 100% inhibition)

Chain of MCP-1 (human) (P13500 24-99 limits assumed): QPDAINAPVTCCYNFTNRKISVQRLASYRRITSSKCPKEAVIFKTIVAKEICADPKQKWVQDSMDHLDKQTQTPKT
Chain of Eotaxin (human) (P51671 24-97 limits assumed): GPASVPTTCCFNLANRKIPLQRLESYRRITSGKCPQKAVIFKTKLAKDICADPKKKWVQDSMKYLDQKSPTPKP

B1: BKT-P2 peptide (peptide)
peptide: SIPSHSIHSAKA
not listed: [6]
100 % inhibition: all other assays above

B2: BKT-P46 peptide (peptide)
peptide: LDYPIPQTVLHH
100 % inhibition: [6] | [1] | [3] | [5]
